Assay in all cases: EMSA
The target in series [1] is T1, Exd (Extradenticle);Ubx (Drosophila melanogaster?;Drosophila …, UniProt P40427;P83949 1-376;56-389, |).
Series [2] concerns the target T1, Exd (Extradenticle);Ubx. The source holds these as a separate data set.
Series [3] addresses T1, Exd (Extradenticle);Ubx. This is another data set of the same source.

Read-outs that look alike come from different tables or passages of the source.

T1 sequence (P40427 whole entry, chain 1 of 2): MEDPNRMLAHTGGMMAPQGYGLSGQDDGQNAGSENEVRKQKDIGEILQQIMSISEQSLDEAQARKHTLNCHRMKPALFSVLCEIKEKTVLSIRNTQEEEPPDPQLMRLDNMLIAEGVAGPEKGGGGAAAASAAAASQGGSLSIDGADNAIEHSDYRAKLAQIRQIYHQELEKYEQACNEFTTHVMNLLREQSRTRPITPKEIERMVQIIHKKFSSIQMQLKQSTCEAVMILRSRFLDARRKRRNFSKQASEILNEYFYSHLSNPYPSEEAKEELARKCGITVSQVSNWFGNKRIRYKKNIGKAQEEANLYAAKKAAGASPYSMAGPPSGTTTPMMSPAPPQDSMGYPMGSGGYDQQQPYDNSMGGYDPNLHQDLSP
T1 sequence (P83949 56-389, chain 2 of 2): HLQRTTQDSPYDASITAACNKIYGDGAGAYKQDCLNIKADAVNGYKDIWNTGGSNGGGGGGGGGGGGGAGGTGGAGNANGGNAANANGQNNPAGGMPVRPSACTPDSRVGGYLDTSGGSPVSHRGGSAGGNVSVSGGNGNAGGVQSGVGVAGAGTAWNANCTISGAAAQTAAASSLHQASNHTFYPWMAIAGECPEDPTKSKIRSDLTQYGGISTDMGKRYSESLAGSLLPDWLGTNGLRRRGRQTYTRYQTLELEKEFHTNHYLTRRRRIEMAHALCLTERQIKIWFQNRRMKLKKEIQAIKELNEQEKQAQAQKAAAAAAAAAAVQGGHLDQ

B1: PrFHOX (dsDNA)
DNA 1: TGATGGCTTCCCTTATGATTTTTTGAATAATTTCTTTA
DNA 2: TATAAAGAAATTATTCAAAAAATCATAAGGGAAGCCAT
For B1, the binding result in series [1] is on record as “no binding”.

B2: PrFWT (dsDNA)
DNA 1: TGATGGCTTCCCTTATGATTTATTGAATAATTTCTTTA
DNA 2: TATAAAGAAATTATTCAATAAATCATAAGGGAAGCCAT
Regarding B2, the binding result in series [2] is “binds”.

B3: PrFEXD (dsDNA)
DNA 1: TGATGGCTTCCCTTATAGTTTATTGAATAATTTCTTTA
DNA 2: TATAAAGAAATTATTCAATAAACTATAAGGGAAGCCAT
In the case of B3, in series [1], the binding result is given as “no binding”.

B4: fkh[250con] (dsDNA)
DNA 1: GATCTCAATGTCAAGATTTATGGCCAGCTGTGGGACGA
DNA 2: CCTCGTCCCACAGCTGGCCATAAATCTTGACATTGAGA
On to B4, for which, in series [3], the binding result is listed as “binds”.

Values taken from PMC3118927.
